Measured values as given in patent US20250163161A1 (TECHNISCHE UNIVERSIT T DARMSTADT, published 2025).

What was measured:
Assay in all cases: BLI
[1] = target: T1, epidermal growth factor receptor (EGFR), soluble, as used in BLI (UniProt P00533 25-645)
T1 construct: extracellular domain; also called EGFR-ECD

[2] = target: T2, programmed death-ligand 1 (PD-L1), soluble, as used in BLI (UniProt Q9NZQ7 19-238)
T2 construct: extracellular domain; also called PD-L1-ECD

CD16 = target: T3, CD16 (UniProt P08637 17-208)
T3 construct: also called Fcγ-receptor IIIa
T3 sequence (P08637 17-208): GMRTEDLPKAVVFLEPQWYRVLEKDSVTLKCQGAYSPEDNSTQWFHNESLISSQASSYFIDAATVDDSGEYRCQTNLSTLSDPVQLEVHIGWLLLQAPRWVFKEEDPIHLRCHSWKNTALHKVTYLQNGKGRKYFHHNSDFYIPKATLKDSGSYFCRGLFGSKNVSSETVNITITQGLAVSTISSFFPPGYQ

T2 sequence (Q9NZQ7 19-238): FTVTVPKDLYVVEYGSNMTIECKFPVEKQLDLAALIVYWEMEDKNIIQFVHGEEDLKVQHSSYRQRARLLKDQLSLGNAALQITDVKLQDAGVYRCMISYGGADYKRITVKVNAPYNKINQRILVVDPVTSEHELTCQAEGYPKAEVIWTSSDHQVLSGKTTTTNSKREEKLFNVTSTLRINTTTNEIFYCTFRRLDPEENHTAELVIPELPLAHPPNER

Row | Binder | Kd [1] [nM] | Kd [2] [nM] | Kd (CD16) [nM]
1 | Knob-into-Hole (KiH) trispecific variant V1: HCP-LCE on one side and heavy chain of CD16 binder NKE14, paired with the HCP-LCE light chain (bispecific antibody, human IgG1, lambda, L234A L235A, Trispecific (EGFR, PD-L1, CD16)) heavy 1: AVTLDESGGGLQTPGGALSLVCKASGFDFSSYDMAWVRQAPGKGLEWVAGIKSNGPWTNYGAAVKGRATISRDNGQSTVRLQLNNLRAEDTAIYYCAKPGAGYVGWDAAGTIDSWGHGTEVIVSSASTKGPSVFPLAPSSKSTSGGTAALGCLVKDYFPEPVTVSWNSGALTSGVHTFPAVLQSSGLYSLSSVVTVPSSSLGTQTYICNVNHKPSNTKVDKRVEPKSCDKTHTCPPCPAPEAAGGPSVFLFPPKPKDTLMISRTPEVTCVVVDVSHEDPEVKFNWYVDGVEVHNAKTKPREEQYNSTYRVVSVLTVLHQDWLNGKEYKCKVSNKALPAPIEKTISKAKGQPREPQVYTLPPSREEMTKNQVSLWCLVKGFYPSDIAVEWESNGQPENNYKTTPPVLDSDGSFFLYSKLTVDKSRWQQGNVFSCSVMHEALHNHYTQKSLSLSPG heavy 2: AVTLDESGGGLQTPGGGLSLVCKGSGFTFSSYNMGWVRQAPGKGLEFVASIDDDGSFTHYGAAVKGRATISRDNGQSTVRLQLNNLRVEDSGIYYCAKSSINGYRCSGGLCVPYITGNIDAWGHGTEVIVSSASTKGPSVFPLAPSSKSTSGGTAALGCLVKDYFPEPVTVSWNSGALTSGVHTFPAVLQSSGLYSLSSVVTVPSSSLGTQTYICNVNHKPSNTKVDKRVEPKSCDKTHTCPPCPAPEAAGGPSVFLFPPKPKDTLMISRTPEVTCVVVDVSHEDPEVKFNWYVDGVEVHNAKTKPREEQYNSTYRVVSVLTVLHQDWLNGKEYKCKVSNKALPAPIEKTISKAKGQPREPQVYTLPPSREEMTKNQVSLSCAVKGFYPSDIAVEWESNGQPENNYKTTPPVLDSDGSFFLVSKLTVDKSRWQQGNVFSCSVMHEALHNRFTQKSLSLSPG light: ALTQPSSVSANLGETVKITCSGGAYSDCGWYQQKSPGSAPVTVIYYNDKRPSDIPSRFSGSTFGSTATLTITGVQAEDEAVYYCGGYDSRTGYVGVFGAGTTLTVLGQPKANPTVTLFPPSSEELQANKATLVCLISDFYPGAVTVAWKADGSPVKAGVETTKPSKQSNNKYAASSYLSLTPEQWKSHRSYSCQVTHEGSTVEKTVAPTECS | 570 | 104 | 277
2 | ICI2_outer and NKE14_inner trispecific variant V2 (bispecific antibody, human IgG1, lambda, L234A L235A, Two Fabs on each side, common light chain LCE; also called ICI2_outer Fab) heavy: not shown light: ALTQPSSVSANLGETVKITCSGGAYSDCGWYQQKSPGSAPVTVIYYNDKRPSDIPSRFSGSTFGSTATLTITGVQAEDEAVYYCGGYDSRTGYVGVFGAGTTLTVLGQPKANPTVTLFPPSSEELQANKATLVCLISDFYPGAVTVAWKADGSPVKAGVETTKPSKQSNNKYAASSYLSLTPEQWKSHRSYSCQVTHEGSTVEKTVAPTECS | 460 | 97.6 | 382
3 | NKE14 + LCE comparative mAb (CD16-binding antibody NKE14 heavy chain with LCE light chain) (antibody, LCE is the HCP-LCE light chain) VH: AVTLDESGGGLQTPGGGLSLVCKGSGFTFSSYNMGWVRQAPGKGLEFVASIDDDGSFTHYGAAVKGRATISRDNGQSTVRLQLNNLRVEDSGIYYCAKSSINGYRCSGGLCVPYITGNIDAWGHGTEVIVSS light: ALTQPSSVSANLGETVKITCSGGAYSDCGWYQQKSPGSAPVTVIYYNDKRPSDIPSRFSGSTFGSTATLTITGVQAEDEAVYYCGGYDSRTGYVGVFGAGTTLTVLGQPKANPTVTLFPPSSEELQANKATLVCLISDFYPGAVTVAWKADGSPVKAGVETTKPSKQSNNKYAASSYLSLTPEQWKSHRSYSCQVTHEGSTVEKTVAPTECS |  |  | 151
